Experimental data as given in paper PMC9482650, “Quantitative fragmentomics allow affinity mapping of interactomes” (Nature Communications, 2022).

What was measured:
Assay in all cases: holdup assay
Design in all cases: key: below the threshold = too weak to quantify, mostly under pKd 3.1 to 4
APBA2_1, Q99767 = target: T1, APBA2_1, Q99767
T1 sequence (Q99767 563-664, limits assumed, looked up): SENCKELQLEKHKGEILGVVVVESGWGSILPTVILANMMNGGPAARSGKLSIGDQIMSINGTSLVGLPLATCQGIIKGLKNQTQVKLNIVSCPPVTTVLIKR

APBA3_1, O96018 = target: T2, APBA3_1, O96018
T2 sequence (O96018 389-490, limits assumed, looked up): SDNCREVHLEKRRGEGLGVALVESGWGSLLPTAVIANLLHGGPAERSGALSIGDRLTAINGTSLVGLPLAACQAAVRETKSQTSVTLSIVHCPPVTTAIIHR

CASK, O14936 = target: CASK, O14936
DFNB31_2, Q9P202 = target: T3, DFNB31_2, Q9P202
T3 sequence (Q9P202 274-371, limits assumed, looked up): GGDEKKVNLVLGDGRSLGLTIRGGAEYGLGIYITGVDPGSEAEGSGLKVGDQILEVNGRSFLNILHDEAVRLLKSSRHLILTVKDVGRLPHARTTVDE

DLG1_1, Q12959 = target: DLG1_1, Q12959
DLG1_2, Q12959 = target: DLG1_2, Q12959
DLG1_3, Q12959 = target: DLG1_3, Q12959
GRIP1_7, Q9Y3R0 = target: T4, GRIP1_7, Q9Y3R0
T4 sequence (Q9Y3R0 999-1096, limits assumed, looked up): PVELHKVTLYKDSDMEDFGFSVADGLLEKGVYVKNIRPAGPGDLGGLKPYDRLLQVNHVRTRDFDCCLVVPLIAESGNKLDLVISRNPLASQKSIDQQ

GRIP2_7, Q9C0E4 = target: GRIP2_7, Q9C0E4
Inadl_5, Q8NI35 = target: Inadl_5, Q8NI35
LNX1_3, Q8TBB1 = target: LNX1_3, Q8TBB1
LRRC7, Q96NW7 = target: T5, LRRC7, Q96NW7
T5 sequence (Q96NW7 1440-1537, limits assumed, looked up): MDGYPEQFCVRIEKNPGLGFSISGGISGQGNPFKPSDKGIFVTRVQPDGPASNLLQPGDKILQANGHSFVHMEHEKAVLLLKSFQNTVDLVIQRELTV

MAGI1_2, Q96QZ7 = target: MAGI1_2, Q96QZ7
MAGI2_2, Q86UL8 = target: MAGI2_2, Q86UL8
MAGI2_4, Q86UL8 = target: MAGI2_4, Q86UL8
MPDZ_10, O75970 = target: T6, MPDZ_10, O75970
T6 sequence (O75970 1624-1722, limits assumed, looked up): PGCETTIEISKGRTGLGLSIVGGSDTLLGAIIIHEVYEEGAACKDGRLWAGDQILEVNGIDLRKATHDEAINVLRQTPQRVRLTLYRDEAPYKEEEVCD

MPDZ_12, O75970 = target: T7, MPDZ_12, O75970
T7 sequence (O75970 1857-1958, limits assumed, looked up): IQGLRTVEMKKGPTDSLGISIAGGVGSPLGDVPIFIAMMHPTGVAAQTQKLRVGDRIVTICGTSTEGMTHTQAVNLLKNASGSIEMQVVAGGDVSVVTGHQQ

NHERF3_1, Q5T2W1 = target: T8, NHERF3_1, Q5T2W1
T8 sequence (Q5T2W1 4-100, limits assumed, looked up): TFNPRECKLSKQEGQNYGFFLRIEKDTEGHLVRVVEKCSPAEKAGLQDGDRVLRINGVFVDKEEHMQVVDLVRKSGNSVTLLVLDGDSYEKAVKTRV

NHERF4_4, Q86UT5 = target: NHERF4_4, Q86UT5
PDZRN4_1, Q6ZMN7 = target: PDZRN4_1, Q6ZMN7
PTPN13_1, Q12923 = target: T9, PTPN13_1, Q12923
T9 sequence (Q12923 1088-1188, limits assumed, looked up): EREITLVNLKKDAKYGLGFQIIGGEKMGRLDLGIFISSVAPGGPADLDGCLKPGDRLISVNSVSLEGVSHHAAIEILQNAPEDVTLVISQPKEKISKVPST

RHPN1, Q8TCX5 = target: T10, RHPN1, Q8TCX5
T10 sequence (Q8TCX5 508-602, limits assumed, looked up): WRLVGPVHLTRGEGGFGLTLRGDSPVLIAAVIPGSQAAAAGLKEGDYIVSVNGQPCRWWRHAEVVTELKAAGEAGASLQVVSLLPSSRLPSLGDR

SNTA1, Q13424 = target: T11, SNTA1, Q13424
T11 sequence (Q13424 82-180, limits assumed, looked up): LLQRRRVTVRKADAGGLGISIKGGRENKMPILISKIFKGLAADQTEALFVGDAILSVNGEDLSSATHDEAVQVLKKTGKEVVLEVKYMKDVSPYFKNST

SYNJ2BP, P57105 = target: T12, SYNJ2BP, P57105
T12 sequence (P57105 8-110, limits assumed, looked up): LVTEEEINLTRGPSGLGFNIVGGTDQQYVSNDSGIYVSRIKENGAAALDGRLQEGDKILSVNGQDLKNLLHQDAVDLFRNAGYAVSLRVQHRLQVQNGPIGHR

TJP3_3, O95049 = target: T13, TJP3_3, O95049
T13 sequence (O95049 375-456, limits assumed, looked up): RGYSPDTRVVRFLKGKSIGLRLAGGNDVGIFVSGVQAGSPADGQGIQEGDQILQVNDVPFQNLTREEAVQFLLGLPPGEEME

[1] = plain residues with an end cap or a label only (N-terminal biotin on a linker: ahx)
[2] = plain residues with an end cap or a label only (N-terminal biotin on a linker: ado-ado)

Measured: pKd

Chain of MAGI1_2, Q96QZ7 (Q96QZ7 456-580): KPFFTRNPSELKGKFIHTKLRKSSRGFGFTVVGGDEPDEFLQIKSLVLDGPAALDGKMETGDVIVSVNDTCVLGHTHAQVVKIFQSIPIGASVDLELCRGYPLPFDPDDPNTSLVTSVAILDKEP
Chain of GRIP2_7, Q9C0E4 (Q9C0E4 934-1023): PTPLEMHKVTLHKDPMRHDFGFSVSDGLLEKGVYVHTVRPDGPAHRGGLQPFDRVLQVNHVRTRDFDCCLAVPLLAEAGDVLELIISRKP
Chain of Inadl_5, Q8NI35 (Q8NI35 673-780): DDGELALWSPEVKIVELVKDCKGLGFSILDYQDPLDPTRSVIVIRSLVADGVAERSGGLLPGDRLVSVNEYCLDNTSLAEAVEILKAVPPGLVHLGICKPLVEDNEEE
Chain of MAGI2_2, Q86UL8 (Q86UL8 410-522): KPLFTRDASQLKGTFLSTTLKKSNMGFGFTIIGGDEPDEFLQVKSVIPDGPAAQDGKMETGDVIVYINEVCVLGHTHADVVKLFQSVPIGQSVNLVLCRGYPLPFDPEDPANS
Chain of NHERF4_4, Q86UT5 (Q86UT5 464-550): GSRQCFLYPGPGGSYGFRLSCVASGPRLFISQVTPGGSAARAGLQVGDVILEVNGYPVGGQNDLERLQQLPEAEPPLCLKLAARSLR
Chain of PDZRN4_1, Q6ZMN7 (Q6ZMN7 213-318): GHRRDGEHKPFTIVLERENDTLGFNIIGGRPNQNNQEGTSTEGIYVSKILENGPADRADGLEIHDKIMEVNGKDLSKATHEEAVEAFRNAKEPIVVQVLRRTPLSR
Chain of CASK, O14936 (O14936 487-570): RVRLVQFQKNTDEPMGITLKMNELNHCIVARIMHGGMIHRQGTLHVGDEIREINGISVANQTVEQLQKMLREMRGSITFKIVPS
Chain of MAGI2_4, Q86UL8 (Q86UL8 772-865): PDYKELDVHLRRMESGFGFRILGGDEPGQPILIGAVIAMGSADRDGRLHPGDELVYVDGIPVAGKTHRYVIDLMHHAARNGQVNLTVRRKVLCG
Chain of LNX1_3, Q8TBB1 (Q8TBB1 500-596): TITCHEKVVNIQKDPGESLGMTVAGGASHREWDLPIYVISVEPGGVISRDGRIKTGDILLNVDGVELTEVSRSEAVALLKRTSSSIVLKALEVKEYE

B1: CGN, Q9P2M7 (peptide)
chain: TESNLQTSSC
4.44: RHPN1, Q8TCX5; [1]
3.53: MAGI2_4, Q86UL8; [1]
3.9: MPDZ_10, O75970; [1]
below the threshold: APBA2_1, Q99767; [1] | APBA3_1, O96018; [1] | CASK, O14936; [1] | DFNB31_2, Q9P202; [1] | DLG1_1, Q12959; [1] | DLG1_2, Q12959; [1] | DLG1_3, Q12959; [1] | GRIP1_7, Q9Y3R0; [1] | GRIP2_7, Q9C0E4; [1] | Inadl_5, Q8NI35; [1] | LNX1_3, Q8TBB1; [1] | LRRC7, Q96NW7; [1] | MAGI1_2, Q96QZ7; [1] | MAGI2_2, Q86UL8; [1] | MPDZ_12, O75970; [1] | NHERF3_1, Q5T2W1; [1] | NHERF4_4, Q86UT5; [1] | PDZRN4_1, Q6ZMN7; [1] | PTPN13_1, Q12923; [1] | SNTA1, Q13424; [1] | SYNJ2BP, P57105; [1] | TJP3_3, O95049; [1]

B2: KCNV1, Q6PIU1 (peptide)
chain: RSSGGDDFWF
4.43: NHERF4_4, Q86UT5; [2]
4.13: MAGI2_4, Q86UL8; [2]
4.59: GRIP2_7, Q9C0E4; [2]
3.67: DLG1_2, Q12959; [2]
below the threshold: APBA2_1, Q99767; [2] | APBA3_1, O96018; [2] | CASK, O14936; [2] | DFNB31_2, Q9P202; [2] | DLG1_1, Q12959; [2] | GRIP1_7, Q9Y3R0; [2] | Inadl_5, Q8NI35; [2] | LNX1_3, Q8TBB1; [2] | LRRC7, Q96NW7; [2] | MAGI1_2, Q96QZ7; [2] | MAGI2_2, Q86UL8; [2] | MPDZ_10, O75970; [2] | MPDZ_12, O75970; [2] | PDZRN4_1, Q6ZMN7; [2] | PTPN13_1, Q12923; [2] | RHPN1, Q8TCX5; [2] | SNTA1, Q13424; [2] | SYNJ2BP, P57105; [2] | TJP3_3, O95049; [2]
4.08: NHERF3_1, Q5T2W1; [2]
3.57: DLG1_3, Q12959; [2]

B3: HTR2A, P28223 (peptide)
chain: DGVNEKVSCV
3.84: DLG1_1, Q12959; [2]
4.82: DLG1_2, Q12959; [2]
4.19: MPDZ_10, O75970; [2]
3.72: MAGI2_4, Q86UL8; [2]
4.3: SYNJ2BP, P57105; [2]
4.66: RHPN1, Q8TCX5; [2] | SNTA1, Q13424; [2]
below the threshold: APBA2_1, Q99767; [2] | APBA3_1, O96018; [2] | CASK, O14936; [2] | DFNB31_2, Q9P202; [2] | DLG1_3, Q12959; [2] | GRIP1_7, Q9Y3R0; [2] | GRIP2_7, Q9C0E4; [2] | Inadl_5, Q8NI35; [2] | LNX1_3, Q8TBB1; [2] | LRRC7, Q96NW7; [2] | MAGI1_2, Q96QZ7; [2] | MPDZ_12, O75970; [2] | NHERF3_1, Q5T2W1; [2] | NHERF4_4, Q86UT5; [2] | PDZRN4_1, Q6ZMN7; [2] | PTPN13_1, Q12923; [2] | TJP3_3, O95049; [2]
4.15: MAGI2_2, Q86UL8; [2]

B4: TIAM1, Q13009 (peptide)
chain: APSRKLNTEI
3.88: RHPN1, Q8TCX5; [1]
below the threshold: APBA2_1, Q99767; [1] | APBA3_1, O96018; [1] | CASK, O14936; [1] | DFNB31_2, Q9P202; [1] | DLG1_1, Q12959; [1] | DLG1_3, Q12959; [1] | GRIP1_7, Q9Y3R0; [1] | GRIP2_7, Q9C0E4; [1] | Inadl_5, Q8NI35; [1] | LNX1_3, Q8TBB1; [1] | LRRC7, Q96NW7; [1] | MAGI1_2, Q96QZ7; [1] | MAGI2_2, Q86UL8; [1] | MAGI2_4, Q86UL8; [1] | MPDZ_12, O75970; [1] | NHERF3_1, Q5T2W1; [1] | NHERF4_4, Q86UT5; [1] | PDZRN4_1, Q6ZMN7; [1] | PTPN13_1, Q12923; [1] | SNTA1, Q13424; [1] | SYNJ2BP, P57105; [1] | TJP3_3, O95049; [1]
3.97: DLG1_2, Q12959; [1]
3.75: MPDZ_10, O75970; [1]
